Measurements reported in patent US7211565 (ESPERION THERAPEUTICS, dated 2007).
Square brackets hold non-standard residues; d marks the D form. Ends that are not written are not given here.

Target: T1, lecithin:cholesterol acyltransferase (LCAT), purified from human plasma (human, UniProt P04180 25-440)
T1 sequence (looked up): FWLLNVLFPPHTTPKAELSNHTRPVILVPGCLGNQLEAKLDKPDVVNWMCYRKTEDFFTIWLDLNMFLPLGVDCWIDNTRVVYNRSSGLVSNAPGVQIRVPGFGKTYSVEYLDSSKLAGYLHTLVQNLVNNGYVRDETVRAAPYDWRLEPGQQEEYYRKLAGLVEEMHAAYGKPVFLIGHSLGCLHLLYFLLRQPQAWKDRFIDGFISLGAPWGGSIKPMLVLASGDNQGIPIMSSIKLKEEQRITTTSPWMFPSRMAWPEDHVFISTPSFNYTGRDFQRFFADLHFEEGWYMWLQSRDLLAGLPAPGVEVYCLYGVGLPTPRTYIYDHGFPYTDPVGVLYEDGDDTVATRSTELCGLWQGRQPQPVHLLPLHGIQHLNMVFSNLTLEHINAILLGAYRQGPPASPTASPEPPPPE
Assay: cell-based or functional assay

ACTIVITY (%) LCAT: 19%
Binder: [dP]LFRELLNELLEALKQKLK [peptide 55 (SEQ ID NO:55)]
